Data on six molecules can be found in patent US20260055202A1 (TEXAS A AND M UNIVERSITY SYSTEM, published 2026).

B1: ACR7 (chicken-derived anti-hCD20 mAb, chicken-human chimeric) (antibody, human IgG1, V domains shown)
VH: AVTLDESGGGLQTPGGALSLVCKASGFTFNSNGMGWVRQAPGKGLEWVAGIHSSGRYTYYGTAVKGRATISRDNGQSTVRLQLNDLRAEDTATYYCAKNADSAYGYWYAGSIDAWGHGTEVIVSS
VL: ALTQPSSVSANLGGTVEITCSGGYSSYGYSWHQQKSPASAPVTLIYNNNNRPSDIPSRFSGSASGSTATLTITGVQAEDEAVYYCAFTDYSSLAGVFGAGTTLTVL
modifications: Atto 488 NHS-ester label on lysines in the direct immunofluorescence and mCD20 assays (positions not defined)
notes: Chicken VH fused to human CH1 and CH2-CH3 of human IgG1; chicken VL fused to human kappa constant domain; made in Expi293F cells; also called chACR7
B2: AC1 (chicken-derived anti-hCD20 mAb, chicken-human chimeric) (antibody, human IgG1, V domains shown)
VH: AVTLDESGGGLQTPGGGLSLVCKASGFDFSSYAMVWVRQAPGKGLEYVGEITNYAAGSGTWYGAAVKGRATISRDNGQSTVRLQLNNLRAEDTATYYCAKGPISGSIGYLSSIDAWGHGTEVIVSS
VL: ALTQPSSVSANPGETVKITCSGGSSRYGYGWYQQKSPGSAPVTVIYWNDKRPSDIPSRFSGSKSGSTGTLTITGVRAEDEAVYYCGNYDNNDPAFGAGTTLTVL
modifications: Atto 488 NHS-ester label on lysines in the direct immunofluorescence and mCD20 assays (positions not defined)
notes: Chicken VH fused to human CH1 and CH2-CH3 of human IgG1; chicken VL fused to human kappa constant domain; made in Expi293F cells; also called chAC1
B3: AC11 (chicken-derived anti-hCD20 mAb, chicken-human chimeric) (antibody, human IgG1, V domains shown)
VH: AVTLDESGGGLQTPGGALSLVCKASGFDFSSSYINWVRQAPGKGLEYVAQINKDGGGSWYAPVVKGRATISRDNGQSTVRLQLSNLRAEDTGIYFCAKNADSGCVGVGGCIDTWGHGTEVIVSS
VL: ALTQPSSVSANPGETVKITCSGGSYYYGGNYYYGWYQQKSPGSAPVTLIYNNNKRPSDIPSRFSGSTSGSTGTLTITGVQADDEAVYYCGGYDSSYVAIFGAGTTLTVL
modifications: Atto 488 NHS-ester label on lysines in the direct immunofluorescence and mCD20 assays (positions not defined)
notes: Chicken VH fused to human CH1 and CH2-CH3 of human IgG1; chicken VL fused to human kappa constant domain; made in Expi293F cells; also called chAC11; parental AC11
B4: Rituximab (antibody, V domains shown)
VH: QVQLQQPGAELVKPGASVKMSCKASGYTFTSYNMHWVKQTPGRGLEWIGAIYPGNGDTSYNQKFKGKATLTADKSSSTAYMQLSSLTSEDSAVYYCARSTYYGGDWYFNVWGAGTTVTVSA
VL: QIVLSQSPAILSASPGEKVTMTCRASSSVSYIHWFQQKPGSSPKPWIYATSNLASGVPVRFSGSGSGTSYSLTISRVEAEDAATYYCQQWTSNPPTFGGGTKLEIK
B5: ACR8 (chicken-derived anti-hCD20 mAb, chicken-human chimeric) (antibody, human IgG1, V domains shown)
VH: AVTLDESGGGLQTPGGALSLVCKASGFSFDRHGMFWVRQAPGKGLEWVAGIRSTGSYPKYGPAVKGRATISRDNGQSTVRLQLNNLRAEDTARYFCVRNVYIGDYDGDSIDAWGHGTEVIVSS
VL: ALTQPSSVSANLGGTVEITCSGSSSGYGSYYGWYQQKSPGSAPVTVIYENTNRPSNIPSRFSGSESGSTATLTITGVQAEDEAVYFCGSADDSGNSAIFGAGTTLTVL
modifications: Atto 488 NHS-ester label on lysines in the direct immunofluorescence and mCD20 assays (positions not defined)
notes: Chicken VH fused to human CH1 and CH2-CH3 of human IgG1; chicken VL fused to human kappa constant domain; made in Expi293F cells; also called chACR8
B6: hAC11-10 (humanized variant of mAb AC11) (antibody, V domains shown)
VH: EVQLVESGGGLVQPGGSLRLSCKASGFTFSSSYINWVRQAPGKGLEYVAQINKDGGGSWYAPVVKGRFTISRDNAKNTVYLQMNSLRAEDTAVYYCAKNADSGCVGVGGCIDTWGQGTTVTVSS
VL: SYELTQPSSVSVSPGQTVRITCSGGSYYYGGNYYYGWYQQKPGQAPVTVIYNNNKRPSGIPERFSGSNSGNTGTLTISGVQAEDEADYYCGGYDSSYVAIFGGGTKLTVL
notes: Humanized variable regions; constant regions not restated for this variant (the parental format is human IgG1 with a human kappa constant domain)

In one assay the target is T1, human CD20 on Raji B lymphoma cells (human, UniProt P11836 1-297).
T1 construct: whole, on cells; also called hCD20
T1 sequence (looked up): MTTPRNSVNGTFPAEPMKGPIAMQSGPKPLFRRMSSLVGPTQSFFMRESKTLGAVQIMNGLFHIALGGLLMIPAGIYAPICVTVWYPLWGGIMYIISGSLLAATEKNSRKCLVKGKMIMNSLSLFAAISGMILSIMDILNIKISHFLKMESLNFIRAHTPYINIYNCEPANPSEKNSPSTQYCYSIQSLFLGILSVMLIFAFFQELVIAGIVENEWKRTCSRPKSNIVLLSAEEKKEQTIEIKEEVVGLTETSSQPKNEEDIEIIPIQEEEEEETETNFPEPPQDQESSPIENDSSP
Description: flow cytometry on Raji cells, indirect immunofluorescence (Atto 488-labeled anti-human Fc secondary Ab), median fluorescence intensity. As for the experimental part:
Median fluorescence intensities (MFIs) from histograms calculated using FlowJo software were used to generate the binding curves in FIG. 8. The identity and concentration of the Ab and calculated MFI is shown in the insets of histograms.
(§1) Binding of anti-hCD20 mAbs to Raji cells: Anti-hCD20 Abs diluted in DPBS/1% bovine serum albumin (BSA) were incubated with 6×10⁵ Raji cells in V-bottom 96-well plates at 4° C. for 1 hour in a final volume of […]. […] Binding of mAbs to live single cells gated by light scatter characteristics was measured using a BD LSRFortessa X-20 flow cytometer. The binding of bacteriophage displaying the Fab portions of the chicken Abs to hCD20-transfected Chinese hamster ovary (CHO) cells was also measured (FIG. 4).
Consider B1, for which the “MFI at 16.7 µg/mL” value worked out at 18000.

Turning to B2, the “MFI at 16.7 µg/mL” value worked out at 20000.

For the molecule B3, the “MFI at 16.7 µg/mL” value came to 19000.

Turning to B4, the “MFI at 16.7 µg/mL” value is 14000.

On to B5, for which the “MFI at 16.7 µg/mL” value came out at 21000.

For the next assay, the target named is T1, human CD20 on Raji B lymphoma cells. The assay is described as follows: flow cytometry on Raji cells (binding/hCD20 receptor occupancy), A488-labeled secondary anti-human IgG Fcγ Ab, MFI against concentration, 5PL fit. As for the experimental part:
The experiment was carried out by detection of bound unlabeled anti-hCD20 Abs using A488-labeled secondary anti-human IgG Fcγ Ab. Median fluorescence values from flow cytometry were obtained using FlowJo software. EC₅₀ values were generated from an asymmetric sigmoidal 5PL fit using GraphPad Prism. Data are from one of two independent, representative experiments. […] All statistical analyses were by unpaired t test.
A general note: A flow cytometer gives signals particle by particle.
By EC50 is commonly meant the midpoint of the concentration-response curve. In turn, B4 registered an EC50 of 4.5 µg/mL.

With B6, a half-maximal response (EC50) required 3.5 µg/mL. The EC50 values of the last two molecules are within 1.5-fold of each other.

The target is the same in a further assay. Description: cell-based or functional assay.
Consider B1, for which the “ADCC signaling, ADCC reporter bioassay (FcgRIIIa V158 Jurkat pseudoeffector cells, Raji targets; fold over Rituximab)” value was > 100 fold relative to Rituximab and the “target cell lysis, PBMC ADCC bioassay on Raji cells (fold over Rituximab)” value (from here on “target cell lysis … (fold over Rituximab)”) is ~10 fold relative to Rituximab.

As for B2, the “ADCC signaling, ADCC reporter bioassay (FcgRIIIa V158 Jurkat pseudoeffector cells, Raji targets; fold over Rituximab)” value is > 100 fold relative to Rituximab and the “target cell lysis … (fold over Rituximab)” value is ~10 fold relative to Rituximab.

With B3, the “ADCC signaling, ADCC reporter bioassay (FcgRIIIa V158 Jurkat pseudoeffector cells, Raji targets; fold over Rituximab)” value was > 100 fold relative to Rituximab and the “target cell lysis … (fold over Rituximab)” value is ~10 fold relative to Rituximab.

For B5, the “ADCC signaling, ADCC reporter bioassay (FcgRIIIa V158 Jurkat pseudoeffector cells, Raji targets; fold over Rituximab)” value was > 100 fold relative to Rituximab and the “target cell lysis … (fold over Rituximab)” value was ~10 fold relative to Rituximab.

The next assay has the same target. The assay is described as follows: flow cytometry on Raji cells, indirect immunofluorescence (Atto 488-labeled anti-human Fc secondary Ab), MFI against concentration, 5PL fit. On the procedure: The median fluorescence intensity (MFI) of Ab-coated cells was determined using FlowJo software. Data for the lowest mAb concentration derives from cells incubated with just buffer (no Ab). […] Values are the mean±SD of duplicate measurements.
as §1
The molecule B1 returned an EC50 of 5.9 µg/mL.

B2 gave a 50% effective concentration (EC50) of 1.8 µg/mL. Compared with the last molecule, the EC50 is about 3.3-fold lower.

Molecule B3 registered an EC50 of 3.2 µg/mL. This EC50 is about 1.8-fold higher than that of the molecule before.

For the molecule B4, the EC50 was 4.5 µg/mL.

In turn, B5 registered an EC50 of 2 µg/mL.

The target in the next assay is T2, mouse CD20 on transfected HEK293T cells (mouse, UniProt P19437 1-291).
T2 construct: whole, on cells; Expressed from pCMV5 mCD20 in HEK293T cells; also called mCD20; MS4A1
T2 sequence (looked up): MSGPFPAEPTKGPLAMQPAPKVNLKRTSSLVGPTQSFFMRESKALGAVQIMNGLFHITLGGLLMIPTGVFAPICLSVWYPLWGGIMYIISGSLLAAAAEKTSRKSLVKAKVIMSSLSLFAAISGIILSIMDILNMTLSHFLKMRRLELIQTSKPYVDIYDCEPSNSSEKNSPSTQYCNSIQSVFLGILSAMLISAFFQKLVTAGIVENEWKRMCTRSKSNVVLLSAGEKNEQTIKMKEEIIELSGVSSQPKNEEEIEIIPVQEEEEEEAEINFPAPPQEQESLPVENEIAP
The assay is described as follows: flow cytometry with Atto 488-labeled Ab on HEK293T cells transfected with pCMV5-mCD20 versus pCMV5 (mock). As for the experimental part:
The identity of the Abs is indicated at the top. Anti-mCD20: commercially obtained anti-mCD20 Ab (eBioscience/Thermo Fisher). Data are from one of two independent, representative experiments.
Cross-reactivity of anti-hCD20 mAbs with mouse CD20: HEK293T cells in P100 tissue culture dishes were transfected at 70-90% confluency with […] pCMV5 mCD20 expression plasmid or parental pCMV5 (mock transfection) using jetOPTIMUS (Polyplus-transfection) reagent per the manufacturer's recommended protocol at a 1:1 jetOPTIMUS:DNA (L: g) ratio. Two days post transfection, the supernatant on the transfected cells was aspirated and the cells dislodged by vigorous pipetting with DPBS (HyClone). The cells were pelleted by centrifugation and the buffer replaced with 8 mL chilled blocking buffer (DPBS/10% FBS). The cells were blocked with gentle rocking at 4° C. for 30 minutes. […] of the blocked cells were transferred to individual wells of a conical-bottom 96-well plate and the cells were pelleted by centrifugation prior to incubation with […] of […] A488-labeled anti-hCD20 Abs or […] A488-labeled anti-mouse CD20 Ab (eBioscience/Thermo Fisher) at 4° C. with rocking for 1 hour. The Ab-coated cells were washed three times with cold DPBS/1% BSA and resuspended in […] DPBS/1% BSA prior to flow cytometric analysis in the FITC channel using a BD LSRFortessa X-20 cytometer. Histogram plots were generated with Flowing Software v2.5.1 (University of Turku).
For B1, the binding result is listed as “no binding”.

On to B3, for which the binding result is on record as “no binding”.

Regarding B5, the binding result is “no binding”.

The next assay concerns the target T1, human CD20 on Raji B lymphoma cells. Description: flow cytometry on Raji cells, direct immunofluorescence with A488-labeled Ab, MFI against concentration, 5PL fit [panel A]. As for the experimental part: Raji cells were incubated with A488-labeled anti-hCD20 Abs followed by washing and flow cytometric analysis using a BD LSRFortessa X-20 instrument. The median fluorescence intensities (MFIs) of Ab-coated cells were determined using FlowJo software and fitted to an asymmetric sigmoidal 5PL curve using GraphPad Prism. Data are the mean±SD of duplicate measurements and are from one of two independent, representative experiments.
B1 yielded an EC50 of 7.3 µg/mL.

B2 returned an EC50 of 2.5 µg/mL.

Regarding B3, the EC50 was determined as 5.7 µg/mL.

As to B4, the EC50 turned out to be 5.6 µg/mL.

As for B5, it took 2 µg/mL to reach a half-maximal effect (EC50).
